Laboratory results as given in PMC10470402 (iScience, 2023).

T1: S. pombe Gemin6/Gemin7/Gemin8 complex, HT-tag removed (S. pombe, UniProt G2TRK8 1-93; G2TRR1 1-91; Q9USY8 1-166)
T1 sequence 1: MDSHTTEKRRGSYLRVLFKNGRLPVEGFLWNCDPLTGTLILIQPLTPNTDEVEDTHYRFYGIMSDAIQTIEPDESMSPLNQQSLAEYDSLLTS
T1 sequence 2: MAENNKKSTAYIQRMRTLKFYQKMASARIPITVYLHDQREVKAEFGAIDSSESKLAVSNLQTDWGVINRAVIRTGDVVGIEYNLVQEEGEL
T1 sequence 3: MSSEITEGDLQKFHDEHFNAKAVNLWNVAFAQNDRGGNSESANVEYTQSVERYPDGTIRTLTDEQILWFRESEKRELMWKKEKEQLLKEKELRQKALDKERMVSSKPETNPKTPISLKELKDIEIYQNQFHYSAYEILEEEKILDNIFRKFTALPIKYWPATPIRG

T2: S. pombe Gemin2/HT-SMNp complex (S. pombe, UniProt P0CU08 1-235; Q09808 1-35)
T2 sequence 1: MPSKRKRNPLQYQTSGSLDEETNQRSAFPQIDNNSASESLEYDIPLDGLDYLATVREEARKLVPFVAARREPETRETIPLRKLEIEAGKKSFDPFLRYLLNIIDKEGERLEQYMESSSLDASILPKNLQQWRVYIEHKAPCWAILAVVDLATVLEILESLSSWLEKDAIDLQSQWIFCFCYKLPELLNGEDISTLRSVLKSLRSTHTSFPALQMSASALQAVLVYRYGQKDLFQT
T2 sequence 2: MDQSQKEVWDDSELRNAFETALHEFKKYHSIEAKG

B1: S. pombe SMN, full length, HT-tag removed (natural protein)
chain: MDQSQKEVWDDSELRNAFETALHEFKKYHSIEAKGGVSDPDSRLDGEKLISAARTEESISKLEEGEQMINQQTETTLEGDTHIQQFADNKGLSDEKPETRAAETHQEFMEVPPPIRGLTYDETYKKLIMSWYYAGYYTGLAEGLAKSEQRKD
B2: S. pombe SmF/SmE/SmG subcomplex, HT-tag removed (complex)
chain 1: not shown
chain 2: MSGRVQKVMIPPINFIFKLLQQHTPVSIWLFEQTDIRLQGQIRGFDEFMNIVLDDAVQVDAKNNKRELGRILLKGDNITLIQAI
chain 3: MSKAGAPDLKKYLDRQVFVQLNGSRKVYGVLRGYDIFLNIVLEDSIEEKVDGEKVKIGSVAIRGNSVIMIETLDKMT
B3: S. pombe SmD1/SmD2 subcomplex, HT-tag removed (complex)
chain 1: not shown
chain 2: MADLVDKPRSELSEIELARLEEYEFSAGPLSVLQQAVKNHDQVLINCRNNKKLLARVKAFDRHSNMVLENVKEMWTEKKRTASGKKGKAINKDRFISKMFLRGDGVVLVVRIPSA
B4: S. pombe SmD3 (1-83)/SmB (1-93) subcomplex, HT-tag removed (complex)
chain 1: MSLCIKLLHETQGHIVTMELENGSTYRGKLIEAEDNMNCQMRDISVTARDGRVSHLDQVYIRGSHIRFLIVPDMLRNAPMFKV
chain 2: MGTTKMVSLLNHSLNVTTKDGRTFVGQLLAFDGFMNLVLSDCQEYRHIKKQNVPSNSVYEEKRMLGLVILRGEFIVSLSVQGPPPMDPSMRGS
B5: S. pombe HT-ICln (residues 1-160) (domain or fragment)
chain: MITKIDSLPKDLIRKVENGEKLLPNQEIVYFEEKTVPYKIRSDEESFPLGKLITLLVTSQSFILFDEEQNSGWKIPYETITLHAKQSKDKPYVYVQLEGEAIRPLLDHILKFERSSGTLHEAPSTEDENEFTDDFLELTLYVTDVDSCYQALCTCQSLHP

Assays:
[1] = target: T1, S. pombe Gemin6/Gemin7/Gemin8 complex, …; experiment: SEC
[2] = target: T2, S. pombe Gemin2/HT-SMNp complex; experiment: pull-down
SEC = target: the molecule itself; experiment: SEC
[3] = target: T2, S. pombe Gemin2/HT-SMNp complex; experiment: pull-down; remark: listed apart in the source
[4] = target: B5; experiment: pull-down
[5] = target: B5; experiment: pull-down; remark: listed apart in the source
[6] = target: S. pombe SmD1/HT-SmD2 subcomplex (S. pombe, UniProt O42661 1-117; O14036 1-115); experiment: SEC + other: ion-exchange chromatography
[7] = target: B4; experiment: SEC
[8] = target: B3; experiment: SEC

Chain of S. pombe SmD1/HT-SmD2 subcomplex (O42661 whole entry, one chain of several): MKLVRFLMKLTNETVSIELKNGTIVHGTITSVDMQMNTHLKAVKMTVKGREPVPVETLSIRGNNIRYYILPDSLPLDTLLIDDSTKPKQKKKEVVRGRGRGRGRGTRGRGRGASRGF

Binder	percent bound [2] [%]	percent bound (D1/D2 and F/E/G added together) [3] [%]	percent bound [4] [%]	also measured
B1	–	–	–	binding result [1]: binds
B2	14.1	53.5	–	stoichiometry N (SEC): 6
B3	19.8	59	100	percent bound (D1/D2 and F/E/G added together) [5]: 95%
B4	–	–	88.9	–
B5	–	–	–	binding result [6]: binds; binding result [7]: binds; binding result [8]: binds
